{"source": "paper PMC13534476", "about": "“The Arabidopsis SPFH protein HIR2 modulates receptor signaling and plasma membrane organization” (The EMBO Journal, 2026)", "proteins": {"B1": {"name": "HIR2-HA (natural protein, Arabidopsis thaliana, UniProt Q9SRH6 1-285, looked up)", "chain": "MGNLFCCVLVKQSDVAVKERFGKFQKVLNPGLQFVPWVIGDYVAGTLTLRLQQLDVQCETKTKDNVFVTVVASIQYRVLADKASDAFYRLSNPTTQIKAYVFDVIRACVPKLNLDDVFEQKNEIAKSVEEELDKAMTAYGYEILQTLIIDIEPDQQVKRAMNEINAAARMRVAASEKAEAEKIIQIKRAEGEAESKYLSGLGIARQRQAIVDGLRDSVLGFAGNVPGTSAKDVLDMVMMTQYFDTMRDIGATSKSSAVFIPHGPGAVSDVAAQIRNGLLQANNAS", "notes": "HIR2, Arabidopsis thaliana; also called HA-tagged HIR2; source: Nicotiana benthamiana leaves, transient expression, total protein extract"}}, "target": "the molecule itself", "experiment": "SDS-PAGE with immunoblot (denaturing); denatured samples (SDS loading buffer, 5 min 95 °C) of the extracts made for BN-PAGE", "note": "“And” between values parts separate entries of the source, which are not always exact repeats. Equal entries are not always repeated.", "data": [{"protein": "B1", "values": [{"measurement": "stoichiometry N", "result": "2 and 4 and 6"}]}]}
